Data as given in the supplement of paper PMC5998384.

What was measured:
HeLa Kyoto [1] = experiment: thermal stability score vs G1/S (z-score of summed log2 fold changes over temperatures); higher = more thermally stable than in G1/S
HeLa Kyoto [2] = experiment: melting temperature (median over replicates), in situ; higher = more thermally stable
HeLa Kyoto [3] = experiment: solubility in G1/S (NP-40 vs SDS abundance) (log2 ratio); higher = more soluble; conditions: cell cycle stage: G1/S
HeLa Kyoto [4] = experiment: solubility change mitosis vs G1/S (difference of NP-40 vs SDS log2 ratios) (log2 ratio difference); higher = more soluble in mitosis
[5] = cell cycle stage: early G1 (4.5 h after nocodazole release)
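For melting temperature (median over replicates), in situ in this document: HeLa Kyoto cells synchronized by double thymidine or nocodazole block, proteins quantified by TMT10plex mass spectrometry, three independent biological replicates.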
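For solubility change mitosis vs G1/S (difference of NP-40 vs SDS log2 ratios) in this document: synchronized HeLa Kyoto cells (double thymidine block for G1/S, nocodazole release for mitosis), protein amounts in NP-40 versus SDS lysates quantified by mass spectrometry, three biological replicates.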
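For solubility in G1/S (NP-40 vs SDS abundance) in this document: HeLa Kyoto cells arrested at G1/S by double thymidine block, proteins quantified by TMT10plex mass spectrometry in mild NP-40 versus SDS extracts, three biological replicates.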
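For thermal stability score vs G1/S (z-score of summed log2 fold changes over temperatures) in this document: synchronized HeLa Kyoto cells, proteins quantified by TMT10plex mass spectrometry, three biological replicates, mitosis taken 0.5 h after nocodazole release, G1/S directly after double thymidine block.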

Sequence of YBX3 (chain, as listed by the source): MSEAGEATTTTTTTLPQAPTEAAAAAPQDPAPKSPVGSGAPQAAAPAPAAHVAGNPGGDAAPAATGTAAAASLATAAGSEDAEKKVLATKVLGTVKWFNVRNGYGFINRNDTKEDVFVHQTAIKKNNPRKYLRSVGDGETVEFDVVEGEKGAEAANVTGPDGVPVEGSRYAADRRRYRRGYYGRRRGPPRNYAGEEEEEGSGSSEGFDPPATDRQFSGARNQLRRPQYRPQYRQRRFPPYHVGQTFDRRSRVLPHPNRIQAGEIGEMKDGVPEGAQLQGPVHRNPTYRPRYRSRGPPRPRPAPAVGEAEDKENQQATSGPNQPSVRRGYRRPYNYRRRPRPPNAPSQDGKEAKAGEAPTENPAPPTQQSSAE

## MSVVGIDLGFQSCYVAVARAGGIETIANEYSDRCTPACISFGPKNRSIGAAAKSQVISNAKNTVQGFKRFHGRAFSDPFVEAEKSNLAYDIVQLPTGLTGIKVTYMEEERNFTTEQVTAMLLSKLKETAESVLKKPVVDCVVSVPCFYTDAERRSVMDATQIAGLNCLRLMNETTAVALAYGIYKQDLPALEEKPRNVVFVDMGHSAYQVSVCAFNRGKLKVLATAFDTTLGGRKFDEVLVNHFCEEFGKKYKLDIKSKIRALLRLSQECEKLKKLMSANASDLPLSIECFMNDVDVSGTMNRGKFLEMCNDLLARVEPPLRSVLEQTKLKKEDIYAVEIVGGATRIPAVKEKISKFFGKELSTTLNADEAVTRGCALQCAILSPAFKVREFSITDVVPYPISLRWNSPAEEGSSDCEVFSKNHAAPFSKVLTFYRKEPFTLEAYYSSPQDLPYPDPAIAQFSVQKVTPQSDGSSSKVKVKVRVNVHGIFSVSSASLVEVHKSEENEEPMETDQNAKEEEKMQVDQEEPHVEEQQQQTPAENKAESEEMETSQAGSKDKKMDQPPQAKKAKVKTSTVDLPIENQLLWQIDREMLNLYIENEGKMIMQDKLEKERNDAKNAVEEYVYEMRDKLSGEYEKFVSEDDRNSFTLKLEDTENWLYEDGEDQPKQVYVDKLAELKNLGQPIKIRFQESEERPKLFEELGKQIQQYMKIISSFKNKEDQYDHLDAADMTKVEKSTNEAMEWMNNKLNLQNKQSLTMDPVVKSKEIEAKIKELTSTCSPIISKPKPKVEPPKEEQKNAEQNGPVDGQGDNPGPQAAEQGTDTAVPSDSDKKLPEMDID [HSPA4]
HeLa Kyoto [1]; [5]
  thermal stability score: 0.436
HeLa Kyoto [1]; cell cycle stage: mitosis
  thermal stability score: 1.85
HeLa Kyoto [2]; cell cycle stage: G1/S
  melting temperature: 51.3 °C
HeLa Kyoto [2]; cell cycle stage: mitosis
  melting temperature: 51.1 °C
HeLa Kyoto [3]
  solubility in G1/S (log2): 0.198
HeLa Kyoto [4]
  solubility change mitosis (log2): -0.0794

## MNSPGGRGKKKGSGGASNPVPPRPPPPCLAPAPPAAGPAPPPESPHKRNLYYFSYPLFVGFALLRLVAFHLGLLFVWLCQRFSRALMAAKRSSGAAPAPASASAPAPVPGGEAERVRVFHKQAFEYISIALRIDEDEKAGQKEQAVEWYKKGIEELEKGIAVIVTGQGEQCERARRLQAKMMTNLVMAKDRLQLLEKMQPVLPFSKSQTDVYNDSTNLACRNGHLQSESGAVPKRKDPLTHTSNSLPRSKTVMKTGSAGLSGHHRAPSYSGLSMVSGVKQGSGPAPTTHKGTPKTNRTNKPSTPTTATRKKKDLKNFRNVDSNLANLIMNEIVDNGTAVKFDDIAGQDLAKQALQEIVILPSLRPELFTGLRAPARGLLLFGPPGNGKTMLAKAVAAESNATFFNISAASLTSKYVGEGEKLVRALFAVARELQPSIIFIDEVDSLLCERREGEHDASRRLKTEFLIEFDGVQSAGDDRVLVMGATNRPQELDEAVLRRFIKRVYVSLPNEETRLLLLKNLLCKQGSPLTQKELAQLARMTDGYSGSDLTALAKDAALGPIRELKPEQVKNMSASEMRNIRLSDFTESLKKIKRSVSPQTLEAYIRWNKDFGDTTV [SPAST]
HeLa Kyoto [1]; [5]
  thermal stability score: 0.0551
HeLa Kyoto [1]; cell cycle stage: mitosis
  thermal stability score: 1.16
HeLa Kyoto [2]; cell cycle stage: G1/S
  melting temperature: 48.8 °C
HeLa Kyoto [2]; cell cycle stage: mitosis
  melting temperature: 49.3 °C
HeLa Kyoto [3]
  solubility in G1/S (log2): 0.427
HeLa Kyoto [4]
  solubility change mitosis (log2): -0.012

## YBX3
HeLa Kyoto [1]; [5]
  thermal stability score: -3.49
HeLa Kyoto [1]; cell cycle stage: mitosis
  thermal stability score: -8.21
HeLa Kyoto [2]; cell cycle stage: G1/S
  melting temperature: 54 °C
HeLa Kyoto [2]; cell cycle stage: mitosis
  melting temperature: 53.8 °C
HeLa Kyoto [3]
  solubility in G1/S (log2): 0.366
HeLa Kyoto [4]
  solubility change mitosis (log2): -0.0607

## MGAYARASGVCARGCLDSAGPWTMSRALRPPLPPLCFFLLLLAAAGARAGGYETCPTVQPNMLNVHLLPHTHDDVGWLKTVDQYFYGIKNDIQHAGVQYILDSVISALLADPTRRFIYVEIAFFSRWWHQQTNATQEVVRDLVRQGRLEFANGGWVMNDEAATHYGAIVDQMTLGLRFLEDTFGNDGRPRVAWHIDPFGHSREQASLFAQMGFDGFFFGRLDYQDKWVRMQKLEMEQVWRASTSLKPPTADLFTGVLPNGYNPPRNLCWDVLCVDQPLVEDPRSPEYNAKELVDYFLNVATAQGRYYRTNHTVMTMGSDFQYENANMWFKNLDKLIRLVNAQQAKGSSVHVLYSTPACYLWELNKANLTWSVKHDDFFPYADGPHQFWTGYFSSRPALKRYERLSYNFLQVCNQLEALVGLAANVGPYGSGDSAPLNEAMAVLQHHDAVSGTSRQHVANDYARQLAAGWGPCEVLLSNALARLRGFKDHFTFCQQLNISICPLSQTAARFQVIVYNPLGRKVNWMVRLPVSEGVFVVKDPNGRTVPSDVVIFPSSDSQAHPPELLFSASLPALGFSTYSVAQVPRWKPQARAPQPIPRRSWSPALTIENEHIRATFDPDTGLLMEIMNMNQQLLLPVRQTFFWYNASIGDNESDQASGAYIFRPNQQKPLPVSRWAQIHLVKTPLVQEVHQNFSAWCSQVVRLYPGQRHLELEWSVGPIPVGDTWGKEVISRFDTPLETKGRFYTDSNGREILERRRDYRPTWKLNQTEPVAGNYYPVNTRIYITDGNMQLTVLTDRSQGGSSLRDGSLELMVHRRLLKDDGRGVSEPLMENGSGAWVRGRHLVLLDTAQAAAAGHRLLAEQEVLAPQVVLAPGGGAAYNLGAPPRTQFSGLRRDLPPSVHLLTLASWGPEMVLLRLEHQFAVGEDSGRNLSAPVTLNLRDLFSTFTITRLQETTLVANQLREAASRLKWTTNTGPTPHQTPYQLDPANITLEPMEIRTFLASVQWKEVDG [MAN2B1]
HeLa Kyoto [1]; [5]
  thermal stability score: -0.143
HeLa Kyoto [1]; cell cycle stage: mitosis
  thermal stability score: -1.1
HeLa Kyoto [2]; cell cycle stage: G1/S
  melting temperature: 57.1 °C
HeLa Kyoto [2]; cell cycle stage: mitosis
  melting temperature: 56.6 °C
HeLa Kyoto [3]
  solubility in G1/S (log2): 0.313
HeLa Kyoto [4]
  solubility change mitosis (log2): -0.109

## MMTSVSSDHCRGAREKPQISAAQSTQPQKQVVQATAEQMRLAQVIFDKNDSDFEAKVKQLMEVTGKNQDECIVALHDCNGDVNKAINILLEGNSDTTSWETVGCKKKNFAKENSENKENREKKSEKESSRGRGNNNRKGRGGNRGREFRGEENGIDCNQVDKPSDRGKRARGRGFGRGRGRGAGRFSTQGMGTFNPADYSDSTSTDVCGTKLVVWEAAQNGADEGTELASNTHNIAQDLSNKSSYGLKGAWKNSVEEWTTEDWTEDLSETKVFTASSAPAENHILPGQSIDLVALLQKPVPHSQASEANSFETSQQQGFGQALVFTNSQHNNQMAPGTGSSTAVNSCSPQSLSSVLGSGFGELAPPKMANITSSQILDQLKAPSLGQFTTTPSTQQNSTSHPTTTTSWDLKPPTSQSSVLSHLDFKSQPEPSPVLSQLSQRQQHQSQAVTVPPPGLESFPSQAKLRESTPGDSPSTVNKLLQLPSTTIENISVSVHQPQPKHIKLAKRRIPPASKIPASAVEMPGSADVTGLNVQFGALEFGSEPSLSEFGSAPSSENSNQIPISLYSKSLSEPLNTSLSMTSAVQNSTYTTSVITSCSLTSSSLNSASPVAMSSSYDQSSVHNRIPYQSPVSSSESAPGTIMNGHGGGRSQQTLDTPKTTGPPSALPSVSSLPSTTSCTALLPSTSQHTGDLTSSPLSQLSSSLSSHQSSLSAHAALSSSTSHTHASVESASSHQSSATFSTAATSVSSSASSGASLSSSMNTANSLCLGGTPASASSSSSRAAPLVTSGKAPPNLPQGVPPLLHNQYLVGPGGLLPAYPIYGYDELQMLQSRLPVDYYGIPFAAPTALASRDGSLANNPYPGDVTKFGRGDSASPAPATTPAQPQQSQSQTHHTAQQPFVNPALPPGYSYTGLPYYTGMPSAFQYGPTMFVPPASAKQHGVNLSTPTPPFQQASGYGQHGYSTGYDDLTQGTAAGDYSKGGYAGSSQAPNKSAGSGPGKGVSVSSSTTGLPDMTGSVYNKTQTFDKQGFHAGTPPPFSLPSVLGSTGPLASGAAPGYAPPPFLHILPAHQQPHSQLLHHHLPQDAQSGSGQRSQPSSLQPKSQASKPAYGNSPYWTN [UBAP2]
HeLa Kyoto [1]; [5]
  thermal stability score: -3.11
HeLa Kyoto [1]; cell cycle stage: mitosis
  thermal stability score: -3.84
HeLa Kyoto [2]; cell cycle stage: G1/S
  melting temperature: 57.3 °C
HeLa Kyoto [2]; cell cycle stage: mitosis
  melting temperature: 56.8 °C
HeLa Kyoto [3]
  solubility in G1/S (log2): 0.0134
HeLa Kyoto [4]
  solubility change mitosis (log2): -0.0536

## MSGGGPSGGGPGGSGRARTSSFAEPGGGGGGGGGGPGGSASGPGGTGGGKASVGAMGGGVGASSSGGGPGGSGGGGSGGPGAGTSFPPPGVKLGRDSGKVTTVVATLGQGPERSQEVAYTDIKVIGNGSFGVVYQARLAETRELVAIKKVLQDKRFKNRELQIMRKLDHCNIVRLRYFFYSSGEKKDELYLNLVLEYVPETVYRVARHFTKAKLTIPILYVKVYMYQLFRSLAYIHSQGVCHRDIKPQNLLVDPDTAVLKLCDFGSAKQLVRGEPNVSYICSRYYRAPELIFGATDYTSSIDVWSAGCVLAELLLGQPIFPGDSGVDQLVEIIKVLGTPTREQIREMNPNYTEFKFPQIKAHPWTKVFKSRTPPEAIALCSSLLEYTPSSRLSPLEACAHSFFDELRCLGTQLPNNRPLPPLFNFSAGELSIQPSLNAILIPPHLRSPAGTTTLTPSSQALTETPTSSDWQSTDATPTLTNSS [GSK3A]
HeLa Kyoto [1]; [5]
  thermal stability score: -1
HeLa Kyoto [1]; cell cycle stage: mitosis
  thermal stability score: -0.972
HeLa Kyoto [2]; cell cycle stage: G1/S
  melting temperature: 52.3 °C
HeLa Kyoto [2]; cell cycle stage: mitosis
  melting temperature: 52.7 °C
HeLa Kyoto [3]
  solubility in G1/S (log2): 0.181
HeLa Kyoto [4]
  solubility change mitosis (log2): -0.0272

## MAEGTAEAPLENGGGGDSGAGALERGVAPIKRQYLTTKEQFHQFLEAKGQEKTCRETEVGDPAGNELAEPEAKRIRLEDGQTADGQTEEAAEPGEQLQTQKRARGQNKGRPHVKPTNYDKNRLCPSLIQESAAKCFFGDRCRFLHDVGRYLETKPADLGPRCVLFETFGRCPYGVTCRFAGAHLRPEGQNLVQEELAARGTQPPSIRNGLDKALQQQLRKREVRFERAEQALRRFSQGPTPAAAVPEGTAAEGAPRQENCGAQQVPAGPGTSTPPSSPVRTCGPLTDEDVVRLRPCEKKRLDIRGKLYLAPLTTCGNLPFRRICKRFGADVTCGEMAVCTNLLQGQMSEWALLKRHQCEDIFGVQLEGAFPDTMTKCAELLSRTVEVDFVDINVGCPIDLVYKKGGGCALMNRSTKFQQIVRGMNQVLDVPLTVKIRTGVQERVNLAHRLLPELRDWGVALVTLHGRSREQRYTKLADWQYIEECVQAASPMPLFGNGDILSFEDANRAMQTGVTGIMIARGALLKPWLFTEIKEQRHWDISSSERLDILRDFTNYGLEHWGSDTQGVEKTRRFLLEWLSFLCRYVPVGLLERLPQRINERPPYYLGRDYLETLMASQKAADWIRISEMLLGPVPPSFAFLPKHKANAYK [DUS3L]
HeLa Kyoto [1]; [5]
  thermal stability score: 1.52
HeLa Kyoto [1]; cell cycle stage: mitosis
  thermal stability score: 2.59
HeLa Kyoto [2]; cell cycle stage: G1/S
  melting temperature: 49 °C
HeLa Kyoto [2]; cell cycle stage: mitosis
  melting temperature: 48.5 °C
HeLa Kyoto [3]
  solubility in G1/S (log2): -0.0832
HeLa Kyoto [4]
  solubility change mitosis (log2): -0.0331

## MFTSTGSSGLYKAPLSKSLLLVPSALSLLLALLLPHCQKLFVYDLHAVKNDFQIWRLICGRIICLDLKDTFCSSLLIYNFRIFERRYGSRKFASFLLGSWVLSALFDFLLIEAMQYFFGITAASNLPSGFLAPVFALFVPFYCSIPRVQVAQILGPLSITNKTLIYILGLQLFTSGSYIWIVAISGLMSGLCYDSKMFQVHQVLCIPSWMAKFFSWTLEPIFSSSEPTSEARIGMGATLDIQRQQRMELLDRQLMFSQFAQGRRQRQQQGGMINWNRLFPPLRQRQNVNYQGGRQSEPAAPPLEVSEEQVARLMEMGFSRGDALEALRASNNDLNVATNFLLQH [UBAC2]
HeLa Kyoto [1]; [5]
  thermal stability score: 0.579
HeLa Kyoto [1]; cell cycle stage: mitosis
  thermal stability score: 1.39
HeLa Kyoto [2]; cell cycle stage: G1/S
  melting temperature: 50.4 °C
HeLa Kyoto [2]; cell cycle stage: mitosis
  melting temperature: 51.2 °C
HeLa Kyoto [3]
  solubility in G1/S (log2): -0.173
HeLa Kyoto [4]
  solubility change mitosis (log2): -0.209
